Experimental findings from the Human Domainome abundance scans (Beltran et al. 2025) are described below.

± gives the uncertainty stated by the source.

A short description of the series: abundance fitness (aPCA) (normalised: wild type 0, dead -1); higher = more abundant; growth selection in yeast, the domain comes from the species named. As to conditions: Saccharomyces cerevisiae (strain ATCC 204508 / S288c).
With “E3 ubiquitin-protein ligase RSP5 R346F, P39940”, the abundance fitness was -0.042 ± 0.069. As for “E3 ubiquitin-protein ligase RSP5 R346G, P39940”, the figure is 0.016 ± 0.044; as for “E3 ubiquitin-protein ligase RSP5 R346H, P39940”, 0.289 ± 0.096. Substance “E3 ubiquitin-protein ligase RSP5 R346K, P39940” had an abundance fitness of 0.192 ± 0.064.

With “E3 ubiquitin-protein ligase RSP5 R346L, P39940”, the abundance fitness was found to be 0.078 ± 0.05. The value for “E3 ubiquitin-protein ligase RSP5 R346M, P39940” was 0.222 ± 0.067. As for “E3 ubiquitin-protein ligase RSP5 R346N, P39940”, the figure is 0.185 ± 0.085. The value for “E3 ubiquitin-protein ligase RSP5 R346P, P39940” was -0.165 ± 0.049. Substance “E3 ubiquitin-protein ligase RSP5 R346Q, P39940” showed an abundance fitness of 0.165 ± 0.066. The value for “E3 ubiquitin-protein ligase RSP5 R346S, P39940” was 0.15 ± 0.05; that for “E3 ubiquitin-protein ligase RSP5 R346T, P39940” was 0.094 ± 0.053. In turn, “E3 ubiquitin-protein ligase RSP5 R346V, P39940” had an abundance fitness of 0.056 ± 0.049. “E3 ubiquitin-protein ligase RSP5 R346W, P39940”: the abundance fitness was -0.017 ± 0.073. The value for “E3 ubiquitin-protein ligase RSP5 R346Y, P39940” was 0.068 ± 0.079; that for “E3 ubiquitin-protein ligase RSP5 R355C, P39940” was -0.17 ± 0.052. The value for “E3 ubiquitin-protein ligase RSP5 R355D, P39940” was -0.462 ± 0.088; that for “E3 ubiquitin-protein ligase RSP5 R355E, P39940” was -0.159 ± 0.053. Turning to “E3 ubiquitin-protein ligase RSP5 R355F, P39940”, the abundance fitness is -0.057 ± 0.2. The value for “E3 ubiquitin-protein ligase RSP5 R355G, P39940” was -0.186 ± 0.041; that for “E3 ubiquitin-protein ligase RSP5 R355H, P39940” was -0.101 ± 0.063; that for “E3 ubiquitin-protein ligase RSP5 R355I, P39940” was -0.35 ± 0.086. As for “E3 ubiquitin-protein ligase RSP5 R355K, P39940”, the figure is 0.033 ± 0.066.

“E3 ubiquitin-protein ligase RSP5 R355L, P39940” returned an abundance fitness of -0.192 ± 0.049. The value for “E3 ubiquitin-protein ligase RSP5 R355M, P39940” was -0.065 ± 0.07; that for “E3 ubiquitin-protein ligase RSP5 R355N, P39940” was -0.008 ± 0.069. “E3 ubiquitin-protein ligase RSP5 R355P, P39940” had an abundance fitness of -0.64 ± 0.064. Regarding “E3 ubiquitin-protein ligase RSP5 R355Q, P39940”, the abundance fitness is -0.013 ± 0.069. As for “E3 ubiquitin-protein ligase RSP5 R355T, P39940”, the figure is -0.257 ± 0.068; as for “E3 ubiquitin-protein ligase RSP5 R355V, P39940”, -0.425 ± 0.045.

On to “E3 ubiquitin-protein ligase RSP5 R363C, P39940”, for which the abundance fitness is -0.219 ± 0.068.

In turn, “E3 ubiquitin-protein ligase RSP5 R363D, P39940” came in with an abundance fitness of -0.725 ± 0.067. In turn, “E3 ubiquitin-protein ligase RSP5 R363E, P39940” registered an abundance fitness of -0.443 ± 0.057. As for “E3 ubiquitin-protein ligase RSP5 R363F, P39940”, the figure is -0.805 ± 0.11; as for “E3 ubiquitin-protein ligase RSP5 R363G, P39940”, -0.276 ± 0.041; as for “E3 ubiquitin-protein ligase RSP5 R363H, P39940”, -0.398 ± 0.066. The value for “E3 ubiquitin-protein ligase RSP5 R363I, P39940” was -0.473 ± 0.061. The value for “E3 ubiquitin-protein ligase RSP5 R363K, P39940” was -0.41 ± 0.057.

As to “E3 ubiquitin-protein ligase RSP5 R363L, P39940”, the abundance fitness is -0.377 ± 0.047. The value for “E3 ubiquitin-protein ligase RSP5 R363M, P39940” was -0.233 ± 0.061; that for “E3 ubiquitin-protein ligase RSP5 R363N, P39940” was -0.357 ± 0.069; that for “E3 ubiquitin-protein ligase RSP5 R363Q, P39940” was -0.367 ± 0.06. As for “E3 ubiquitin-protein ligase RSP5 R363S, P39940”, the figure is -0.262 ± 0.049; as for “E3 ubiquitin-protein ligase RSP5 R363T, P39940”, -0.256 ± 0.056; as for “E3 ubiquitin-protein ligase RSP5 R363V, P39940”, -0.437 ± 0.046. The value for “E3 ubiquitin-protein ligase RSP5 R363W, P39940” was -0.511 ± 0.06. “E3 ubiquitin-protein ligase RSP5 R363Y, P39940”: the abundance fitness is -0.667 ± 0.08. The value for “E3 ubiquitin-protein ligase RSP5 R364A, P39940” was 0.113 ± 0.055. As for “E3 ubiquitin-protein ligase RSP5 R364D, P39940”, the figure is 0.126 ± 0.067. The value for “E3 ubiquitin-protein ligase RSP5 R364E, P39940” was 0.129 ± 0.052. Regarding “E3 ubiquitin-protein ligase RSP5 R364H, P39940”, the abundance fitness is 0.163 ± 0.092.

Substance “E3 ubiquitin-protein ligase RSP5 R364I, P39940” returned an abundance fitness of -0.088 ± 0.11. The value for “E3 ubiquitin-protein ligase RSP5 R364L, P39940” was 0.074 ± 0.043; that for “E3 ubiquitin-protein ligase RSP5 R364M, P39940” was 0.051 ± 0.059; that for “E3 ubiquitin-protein ligase RSP5 R364P, P39940” was 0.072 ± 0.052. In turn, “E3 ubiquitin-protein ligase RSP5 R364Q, P39940” showed an abundance fitness of 0.066 ± 0.054.

Substance “E3 ubiquitin-protein ligase RSP5 R364S, P39940” displayed an abundance fitness of 0.087 ± 0.05. For “E3 ubiquitin-protein ligase RSP5 R364T, P39940”, the abundance fitness is 0.077 ± 0.057. The value for “E3 ubiquitin-protein ligase RSP5 R364V, P39940” was 0.035 ± 0.049. As for “E3 ubiquitin-protein ligase RSP5 R364W, P39940”, the figure is -0.072 ± 0.048; as for “E3 ubiquitin-protein ligase RSP5 R364Y, P39940”, -0.026 ± 0.086; as for “E3 ubiquitin-protein ligase RSP5 S328A, P39940”, -0.172 ± 0.046. The substance “E3 ubiquitin-protein ligase RSP5 S328C, P39940” yielded an abundance fitness of 0.054 ± 0.079. The value for “E3 ubiquitin-protein ligase RSP5 S328D, P39940” was 0.126 ± 0.074; that for “E3 ubiquitin-protein ligase RSP5 S328G, P39940” was -0.113 ± 0.042. As for “E3 ubiquitin-protein ligase RSP5 S328H, P39940”, the figure is -0.014 ± 0.076; as for “E3 ubiquitin-protein ligase RSP5 S328K, P39940”, 0.083 ± 0.055. Substance “E3 ubiquitin-protein ligase RSP5 S328M, P39940” showed an abundance fitness of 0.099 ± 0.067.

In the case of “E3 ubiquitin-protein ligase RSP5 S328N, P39940”, the abundance fitness came to 0.1 ± 0.071. The value for “E3 ubiquitin-protein ligase RSP5 S328P, P39940” was -0.025 ± 0.064; that for “E3 ubiquitin-protein ligase RSP5 S328R, P39940” was -0.095 ± 0.044; that for “E3 ubiquitin-protein ligase RSP5 S328T, P39940” was -0.018 ± 0.12.

In the case of “E3 ubiquitin-protein ligase RSP5 S328V, P39940”, the abundance fitness is -0.07 ± 0.055. As for “E3 ubiquitin-protein ligase RSP5 S328Y, P39940”, the figure is 0.036 ± 0.098.

With “E3 ubiquitin-protein ligase RSP5 S335A, P39940”, the abundance fitness is -0.063 ± 0.044. As for “E3 ubiquitin-protein ligase RSP5 S335C, P39940”, the figure is -0.147 ± 0.07. As for “E3 ubiquitin-protein ligase RSP5 S335D, P39940”, the figure is 0.205 ± 0.14; as for “E3 ubiquitin-protein ligase RSP5 S335E, P39940”, -0.031 ± 0.053.

As to “E3 ubiquitin-protein ligase RSP5 S335F, P39940”, the abundance fitness was -0.205 ± 0.11.

“E3 ubiquitin-protein ligase RSP5 S335G, P39940” gave an abundance fitness of -0.108 ± 0.052. As for “E3 ubiquitin-protein ligase RSP5 S335H, P39940”, the figure is -0.079 ± 0.066; as for “E3 ubiquitin-protein ligase RSP5 S335K, P39940”, -0.049 ± 0.045. The value for “E3 ubiquitin-protein ligase RSP5 S335L, P39940” was -0.202 ± 0.046. The substance “E3 ubiquitin-protein ligase RSP5 S335M, P39940” gave an abundance fitness of -0.086 ± 0.063. Take “E3 ubiquitin-protein ligase RSP5 S335N, P39940”: the abundance fitness is -0.015 ± 0.084. “E3 ubiquitin-protein ligase RSP5 S335P, P39940” had an abundance fitness of 0.047 ± 0.38. The value for “E3 ubiquitin-protein ligase RSP5 S335Q, P39940” was -0.094 ± 0.051.

“E3 ubiquitin-protein ligase RSP5 S335R, P39940”: the abundance fitness was -0.129 ± 0.051. As for “E3 ubiquitin-protein ligase RSP5 S335T, P39940”, the figure is -0.247 ± 0.087. The value for “E3 ubiquitin-protein ligase RSP5 S335V, P39940” was -0.141 ± 0.051; that for “E3 ubiquitin-protein ligase RSP5 S335W, P39940” was -0.278 ± 0.064. Regarding “E3 ubiquitin-protein ligase RSP5 S335Y, P39940”, the abundance fitness is -0.33 ± 0.087.
